Measurements: patent US20220323583A1, “Pharmaceutical Formulations of Bi-Specific Diabodies and Use of the Same” (MacroGenics, Inc., priority 2019, published 2022)

What was measured:
[1] = tested on: HT29; assay: Redirected killing of target cell line; format: cell-based; settings: HT29 (CD123 negative)
[2] = tested on: MOLM13 tumors; assay: Human T cells and Molm13 tumor cells injected subcutaneously into NSG mice; format: in vivo, NOD/SCID gamma (NSG) knockout mice
Method: A dose of 0.004 mg/kg and higher was active in the MOLM13 model.

[3] = target: Human CD3ε/δ (Homo sapiens, UniProt P07766); assay: Binding of DART-A to CD3 (ka, kd, KD)
Human CD3ε/δ, sequence (P07766 23-126 limits assumed): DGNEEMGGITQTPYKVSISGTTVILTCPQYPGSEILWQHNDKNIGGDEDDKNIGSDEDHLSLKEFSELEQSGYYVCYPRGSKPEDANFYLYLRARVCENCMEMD
Human CD3ε/δ, sequence (P04234 22-105 partner limits assumed): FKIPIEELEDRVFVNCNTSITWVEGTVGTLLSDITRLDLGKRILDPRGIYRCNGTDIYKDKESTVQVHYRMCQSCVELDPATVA

[4] = Osmolality; format: physicochemical; settings: Stabilizer 2
[5] = tested on: Molm13; assay: Redirected killing of target cell line; format: cell-based
[6] = Differential scanning calorimetry (DSC), thermal stability; format: physicochemical; settings: DP buffer with or without PS80 (150 mM NaCl, 10 mM sodium phosphate, pH 6.0)
Method: Differential Scanning calorimetry measures the energetics of protein unfolding during a temperature ramp. Peaks represent apparent melting temperatures and the area under the peaks represent the enthalpy of the thermal transition. Data were collected for duplicate samples over 20° C. to 90° C. range using temperature ramp rate of 60° C./hour.

[7] = target: Cynomolgus CD3ε/δ (Macaca fascicularis, UniProt Q95LI5); assay: Binding of DART-A to CD3 (ka, kd, KD); design: species or system cynomolgus monkey
Cynomolgus CD3ε/δ, sequence (Q95LI5 22-117 limits assumed): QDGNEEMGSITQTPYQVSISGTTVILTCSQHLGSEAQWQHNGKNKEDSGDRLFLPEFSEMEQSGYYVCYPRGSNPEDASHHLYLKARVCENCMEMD
Cynomolgus CD3ε/δ, sequence (Q95LI8 22-105 partner limits assumed): as the sequence (P04234 22-105 partner limits assumed) above, with I5V, N15K, I20V, S32T, D33N, I34N, T64A, S74N, V83L counted along it

[8] = tested on: U937 cells; assay: Activity against CD123-negative targets; format: cell-based
[9] = FLR SE-HPLC protein recovery (monomer peak area); format: physicochemical
Method: Four levels of PS80 were tested during this study to evaluate the blocking activity of the surfactant. Briefly, test stabilizer solutions (10 mM sodium phosphate at pH 6.0, 150 mM sodium chloride, 1.6 mg/mL BA and 0, 0.05, 0.1, or 0.2 mg/mL PS80) were added to a normal saline containing IV bag. After thorough mixing, the DART-A DP formulation was added to the same IV bag. The bag containing the dosing solution was incubated at 25±2° C. and samples were collected at 0, 24 and 48 hours (the longest proposed administration time). Each sample was analyzed using FLR/SE-HPLC and verified using ELISA to quantify DART-A protein recovery.
For both low and high concentration infusions, samples were collected at 24, 48, and 72 hours from sampling point #5. […] The data was calculated against the expected TO sample to obtain the DART-A recovery. […] Similar to other binding ELISA assays, these ranges are within the typical variation of this type of bioassay (50%-150%).
(§1) FLR SE-HPLC analysis was performed to measure protein purity, monomer purity and protein stability. The FLR SE-HPLC configuration included a fluorescence (FLR) detector (λX=280 nm, λE=340 nm), a mobile phase composition of 350 mM Mobile Phase (175 mMNaH2PO4, 175 mMNa2SO, pH 6.3) and a TosoBio TSK G3000SWXL size exclusion column. Samples were diluted to 0.1 mg/mL and stored at 5±3° C. for 24 to 96 hours prior to analysis. Eight μg of protein (or 100 μL is sample concentration was below 0.1 mg/mL) was injected for each 30-minute run. HMW and LMW species and monomer peaks were monitored.

[10] = tested on: THP-1; assay: Redirected killing of target cell line; format: cell-based
[11] = tested on: A498; assay: Redirected killing of target cell line; format: cell-based; settings: A498 (CD123 negative)
[12] = SE-HPLC (protein aggregation: % main peak, % HMW, % LMW); format: physicochemical; settings: for FLR SE-HPLC % HMW / FLR SE-HPLC % LMW / FLR SE-HPLC % Main Peak: 0.1 mg/mL solution, Stabilizer 2
Method: as §1

[13] = tested on: pDCs in human PBMCs; assay: pDC depletion in PBMCs; format: cell-based
Excerpt: (§2) Upregulation of granzyme B and perforin levels in both CD8 and CD4 T cells was observed.

[14] = tested on: pDCs in cynomolgus monkey PBMCs; assay: pDC depletion in PBMCs; format: cell-based
Excerpt: as §2

[15] = tested on: primary ALL bone marrow samples; assay: Incubation of primary ALL bone marrow samples with DART-A; format: cell-based, human; settings: vs untreated control or Control DART
Excerpt: as §2

[16] = Post Infusion (Infusion Time = 96 Hrs)
[17] = Post Storage (Time = 72 Hrs), room temperature

B1: DART-A: sequence-optimized CD123×CD3 bispecific diabody; chains SEQ ID NO:42 and SEQ ID NO:44 covalently bonded by a disulfide bond (protein)
chain 1: QAVVTQEPSLTVSPGGTVTLTCRSSTGAVTTSNYANWVQQKPGQAPRGLIGGTNKRAPWTPARFSGSLLGGKAALTITGAQAEDEADYYCALWYSNLWVFGGGTKLTVLGGGGSGGGGEVQLVQSGAELKKPGASVKVSCKASGYTFTDYYMKWVRQAPGQGLEWIGDIIPSNGATFYNQKFKGRVTITVDKSTSTAYMELSSLRSEDTAVYYCARSHLLRASWFAYWGQGTLVTVSSGGCGGGEVAALEKEVAALEKEVAALEKEVAALEK
chain 2: DFVMTQSPDSLAVSLGERVTMSCKSSQSLLNSGNQKNYLTWYQQKPGQPPKLLIYWASTRESGVPDRFSGSGSGTDFTLTISSLQAEDVAVYYCQNDYSYPYTFGQGTKLEIKGGGSGGGGEVQLVESGGGLVQPGGSLRLSCAASGFTFSTYAMNWVRQAPGKGLEWVGRIRSKYNNYATYYADSVKDRFTISRDDSKNSLYLQMNSLKTEDTAVYYCVRHGNFGNSYVSWFAYWGQGTLVTVSSGGCGGGKVAALKEKVAALKEKVAALKEKVAALKE
modifications: interchain disulfide bond; First Polypeptide Chain of DART-A; Second Polypeptide Chain of DART-A
Max % Killing [1]: No activity | EC50, redirected killing ([1]; E:T = 10:1): No activity | MOLM13 tumor growth ([2]; 0.16, 0.5, 0.2, 0.1, 0.02 and 0.004 mg/kg dose levels): significantly inhibited | dose active in the MOLM13 model ([2]; mouse, in vivo): ≥ 4 µg/kg | ka (± SD) [3]: 5.7 (± 0.6) × 10^5 M^−1s^−1 | kd (± SD) [3]: 5.0 (± 0.9) × 10^−3 s^−1 | Kd ([3]; read-out: KD (± SD)): 9 ± 2.3 nM | Osmolality ([4]; 10 ng/mL dosing solution, Post Infusion (Infusion Time = 48 Hrs)): 274 mOsm/kg | Osmolality ([4]; 10 ng/mL dosing solution, Post Storage (T = 72 Hrs), room temperature): 275 mOsm/kg | Osmolality ([4]; 10 ng/mL dosing solution, T = 0): 275 mOsm/kg | Osmolality ([4]; 20 ng/mL dosing solution, Post Infusion (Infusion Time = 96 Hrs)): 276 mOsm/kg | Osmolality ([4]; 20 ng/mL dosing solution, Post Storage (T =72 Hrs), room temperature): 276 mOsm/kg | Osmolality ([4]; 20 ng/mL dosing solution, T = 0): 276 mOsm/kg | Osmolality ([4]; 1250 ng/mL dosing solution, Post Infusion (Infusion Time = 48 Hrs)): 276 mOsm/kg | Osmolality ([4]; 1250 ng/mL dosing solution, Post Storage (T = 72 Hrs), room temperature): 275 mOsm/kg | Osmolality ([4]; 1250 ng/mL dosing solution, T = 0): 275 mOsm/kg | Max % Killing [5]: 43% | melting temperature (Tm), DSC [6]: 64 °C | ka (± SD) [7]: 5.5 (± 0.5) × 10^5 M^−1s^−1 | kd (± SD) [7]: 5.0 (± 0.9) × 10^−3 s^−1 | Kd ([7]; read-out: KD (± SD)): 9.2 ± 2.3 nM | activity against CD123-negative targets [8]: No activity | DART-A Monomer Peak Area in SE-HPLC FLR ([9]; Study 1, Stabilizer 1, dual-pump infusion RT, High (5000 ng/mL), Expected or Control (T0)): 1814623 EU * min | DART-A Monomer Peak Area in SE-HPLC FLR ([9]; Study 1, Stabilizer 1, dual-pump infusion RT, High (5000 ng/mL), T = 24 hours): 1483536 EU * min | DART-A Monomer Peak Area in SE-HPLC FLR ([9]; Study 1, Stabilizer 1, dual-pump infusion RT, High (5000 ng/mL), T = 48 hours): 1792023 EU * min | DART-A Monomer Peak Area in SE-HPLC FLR ([9]; Study 1, Stabilizer 1, dual-pump infusion RT, High (5000 ng/mL), T = 72 hours): 1804667 EU * min | DART-A Monomer Peak Area in SE-HPLC FLR ([9]; Study 1, Stabilizer 1, dual-pump infusion RT, Low (100 ng/mL), Expected or Control (T0)): 46006 EU * min | DART-A Monomer Peak Area in SE-HPLC FLR ([9]; Study 1, Stabilizer 1, dual-pump infusion RT, Low (100 ng/mL), T = 24 hours): 37026 EU * min | DART-A Monomer Peak Area in SE-HPLC FLR ([9]; Study 1, Stabilizer 1, dual-pump infusion RT, Low (100 ng/mL), T = 48 hours): 44708 EU * min | DART-A Monomer Peak Area in SE-HPLC FLR ([9]; Study 1, Stabilizer 1, dual-pump infusion RT, Low (100 ng/mL), T = 72 hours): 49122 EU * min | DART-A Monomer Peak Area in SE-HPLC FLR ([9]; Study 2, Stabilizer 1, cassette 25° C., 100 rpm, High (5000 ng/mL), T = 0): 41031471 EU * min | DART-A Monomer Peak Area in SE-HPLC FLR ([9]; Study 2, Stabilizer 1, cassette 25° C., 100 rpm, High (5000 ng/mL), T = 24 hours): 40529514 EU * min | DART-A Monomer Peak Area in SE-HPLC FLR ([9]; Study 2, Stabilizer 1, cassette 25° C., 100 rpm, High (5000 ng/mL), T = 48 hours): 41438367 EU * min | DART-A Monomer Peak Area in SE-HPLC FLR ([9]; Study 2, Stabilizer 1, cassette 25° C., 100 rpm, High (5000 ng/mL), T = 72 hours): 41582544 EU * min | DART-A Monomer Peak Area in SE-HPLC FLR ([9]; Study 2, Stabilizer 1, cassette 25° C., 100 rpm, Low (100 ng/mL), T = 0): 355660 EU * min | DART-A Monomer Peak Area in SE-HPLC FLR ([9]; Study 2, Stabilizer 1, cassette 25° C., 100 rpm, Low (100 ng/mL), T = 24 hours): 379757 EU * min | DART-A Monomer Peak Area in SE-HPLC FLR ([9]; Study 2, Stabilizer 1, cassette 25° C., 100 rpm, Low (100 ng/mL), T = 48 hours): 377121 EU * min | DART-A Monomer Peak Area in SE-HPLC FLR ([9]; Study 2, Stabilizer 1, cassette 25° C., 100 rpm, Low (100 ng/mL), T = 72 hours): 394028 EU * min | DART-A Monomer Peak Area in SE-HPLC FLR ([9]; Study 3, Stabilizer 1, cassette 37° C., 100 rpm, Low (100 ng/mL), T = 0): 397095 EU * min | DART-A Monomer Peak Area in SE-HPLC FLR ([9]; Study 3, Stabilizer 1, cassette 37° C., 100 rpm, Low (100 ng/mL), T = 72 hours): 368950 EU * min | DART-A Monomer Peak Area in SE-HPLC FLR ([9]; Study 3, Stabilizer 1, cassette 37° C., 100 rpm, second group, target concentration not given, T = 0): 41031489 EU * min | DART-A Monomer Peak Area in SE-HPLC FLR ([9]; Study 3, Stabilizer 1, cassette 37° C., 100 rpm, second group, target concentration not given, T = 72 hours): 39005201 EU * min | Max % Killing [10]: 40% | Max % Killing [11]: No activity | EC50, redirected killing ([11]; E:T = 10:1): No activity | SE-HPLC species ([12]; 0.1 mg/mL in Stabilizer 2 dosing solution, 72-hour RT storage and administration): no changes in the LMW and LMW | FLR SE-HPLC % HMW [12, 16]: 0.9% | FLR SE-HPLC % LMW [12, 16]: 0.9% | FLR SE-HPLC % Main Peak [12, 16]: 98.2% | FLR SE-HPLC % HMW [12, 17]: 0.8% | FLR SE-HPLC % LMW [12, 17]: 0.9% | FLR SE-HPLC % Main Peak [12, 17]: 98.4% | FLR SE-HPLC % HMW ([12]; T = 0 Hrs): 0.8% | FLR SE-HPLC % LMW ([12]; T = 0 Hrs): 0.9% | FLR SE-HPLC % Main Peak ([12]; T = 0 Hrs): 98.4% | depletion of pDCs [13]: capable of mediating the depletion of pDCs cells | depletion of pDCs [14]: capable of mediating the depletion of pDCs cells | leukemic cell population [15]: depletion of the leukemic cell population over time
